Experimental data as given in patent US20240238448.

Biological target: ZFHD1-FKBP (ZF-FKBP fusion) (synthetic construct) (UniProt P08046+P14859)
Test: cell_activity
Details: GFP reporter in 293-ZF-FKBP cells with CEM87 recruiting BRD4; dose-dependent; indirect evidence of binding; no response in WT 293 cells

ZFHD1-FKBP (ZF-FKBP fusion) (synthetic construct), sequence (P08046 333-390, chain 1 of 2): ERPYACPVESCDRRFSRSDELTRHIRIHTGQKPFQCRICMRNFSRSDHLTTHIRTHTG
ZFHD1-FKBP (ZF-FKBP fusion) (synthetic construct), sequence (P14859 378-439, chain 2 of 2): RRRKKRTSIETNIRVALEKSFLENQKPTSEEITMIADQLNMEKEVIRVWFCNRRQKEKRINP

ZF binding domain recognition sequence (ZFHD1 cognate site) upstream of JET promoter in AAV2-BD-JET-GFP
activity (fold activation): > 10
